Test results published in patent US20070243191A1, “ANTI-HYPERPROLIFERATIVE THERAPIES TARGETING HDGF” (THE BOARD OF REGENTS OF THE UNIVERSITY OF TEXAS SYSTEM, priority 2005, published 2007).

B1: anti-HDGF monoclonal antibody C1 (antibody, V domains shown)
VH: EVQLVESGGRLVQPKGSLKLSCAASGFTFNTYAMYWIRQAPGKGLEWVARIRSKSYNYATYYADSVKDRFTISRDDSQSMLYLQMNNLKTADTAMYYCVSEGFWGQGTSVTVSS
VL: DVLMTQTPLSLPVSLGDQASISCRSSQSIVHSSGNTYLEWYLQKPGQSPKLLIYKVSNRFSGVPDRFSGSGSGTDFTLKISRVEAEDLGVYYCFQGSHVPWTFGGGTKLEIK
notes: also called HDGF C1-2f; C1 antibody
B2: H3: anti-HDGF IgG1 monoclonal antibody; heavy chain SEQ ID NO:36, light chain SEQ ID NO:38 (antibody, V domains shown)
VH: QITLKQSGPGIVQPSQPVRLTCTFSGFSLSTSGIGVAWIRQPSGKGLEWLATIWWDDDNRYNPSLKSRLAVSKDTSNNQAFLNIITVETADTAIYYCAQIYDYAVGFAYWGQGTLVTVSA
VL: DIQMTQTTSSLSASLGDRVTISCRASQDISNYLNWYQQKPDGTVKLLIYYTSRLHSGVPSRFSGSGSGTDYSLTISNLEPDDIATYYCQQYGKLWTFGGGTKLEIK
modifications: H3 heavy chain aa; H3 light chain aa
B3: C1: anti-HDGF IgG1 monoclonal antibody; heavy chain SEQ ID NO:32, light chain SEQ ID NO:34 (antibody, V domains shown)
VH: B1 VH
VL: B1 VL
modifications: C1 heavy chain aa; C1 light chain aa

Key:
[1] = system: tumor microvessels; assay: CD31 staining of microvessels in treated A549 xenograft tumors; type: in vivo, mouse
Text: In order to directly study the antiangiogenic action of anti-HDGF antibodies, the xenograph tumors treated with the various agents and presented in the foregoing example (see FIG. 8) were studied following CD31 staining. CD31 antibody staining is generally regarded as a convenient means of visualizing microvessels in order to assess angiogenesis and anti-angiogenic action. Each of the tumors treated as described with respect to FIG. 8 were subjected to CD31 staining.

[2] = system: A549 xenograft; assay: A549 xenograft model, H3 in combination with gemcitabine and Avastin; type: in vivo, mouse; conditions: single agents and combinations
Procedure: To determine potential synergistic effects of combining the antibodies with other cancer therapeutic agents, the H3 antibody was tested in combination with gemcitabine, a commonly used chemotherapeutic agent, and Avastin®, a FDA approved VEGF neutralizing monoclonal antibody, in the A549 xenograft model. At day 7 after tumor cell inoculation subcutaneously, the animals were randomized into one of the 8 groups: […] (6 mice), gemcitabine (5 mice), H3 (7 mice), Avastin® (5 mice), H3+gemcitabine (5 mice), 113+Avastin® (5 mice), Avastin®+gemcitabin (5 mice), and H3+ gemcitabine+Avastin® (7 mice). In this experiment, all the agents were given IP at day 7 and every 3 days thereafter for total 5 injections. H3 was given 250 μg per mouse/injection without boost at first injection; gemcitabine was given in a dose of 80 mg/kg/injection; and Avastin® was given 100 μg per mouse/injection.

[3] = biological target: T1, human hepatoma-derived growth factor (HDGF) (human, UniProt P51858 1-240); assay: sandwich ELISA, 40 ng C1 coated per well as capture antibody
T1 construct: In most assays the endogenous protein of human cancer cell lines or tissues (lysates for immunoprecipitation, denatured on Western blots); also called native HDGF; recombinant HDGF

[4] = biological target: T2, HDGF (Mus musculus, UniProt P51859, A118D); assay: Western blot of HDGF in putative MiaPaca-2 cells; type: binding; conditions: putative MiaPaca-2 line (murine HDGF)
T2 construct: endogenous in cells; host or cells: putative MiaPaca-2 cells, believed to be M109 murine lung adenocarcinoma
Procedure: (§1) The two antibodies were tested using what was believed at the time to be the MiaPaca-2 pancreatic cancer xenograft model. […] This observation led to the use of H3 in the initial combination experiment described above. To determine the expression of HDGF in the cell line, a Western blot analysis was performed using C1 and H3 antibodies. […] To determine HDGF expression levels in pancreatic cancers, 7 additional pancreatic cancer cell lines were analyzed. All the 7 cell lines expressed high-level HDGF recognizable by H3 antibody but not the putative “MiaPaca-2” line.
(§2) An immunoprecipitation assay was then performed using H3 antibody to determine whether the antibody recognizes the native HDGF in the cells, which is important to explain why the antibody had inhibited the tumor growth in the xenograft model. […] Because the protein migrated faster than the HDGF from NSCLC cell lines, the HDGF cDNA from “MiaPaca-2” cells was sequenced. […] The origin of the cell line was traced and is now believed to be M109, a murine lung adenocarcinoma cell line from a mouse spontaneous lung cancer.

[5] = Antibody distribution after intra-peritoneal injection in tumor-bearing nude mice; type: in vivo; conditions: for antibody localization in tumor tissue (anti-mouse IgG staining): tumor tissue sections of treated tumors
Procedure: To determine the distribution of the antibodies after intra-peritoneal injection in the animals, we injected fluoresce labeled M31 and H3 antibodies into nude mice and used a scanner to measure the antibody distribution 12 h after injection. […] To determine the antibody distribution in the tumor tissues and to compare the patterns of the distribution in the tumor tissues among the different antibodies, a specific anti-mouse IgG antibody was used to stain tumor tissue sections of tumors treated with different antibodies.

[6] = biological target: native HDGF (Homo sapiens, UniProt P51858); assay: Binding to native HDGF (immunoprecipitation, clone selection)
Text: Thus, to develop a useful therapeutic that could affect tumor control, it was deemed important to develop high-affinity monoclonal antibodies that had the ability to bind native HDGF. An exemplary approach that was employed by the inventors involved, first, generating full-length recombinant HDGF in bacteria. This bacterially expressed recombinant HDGF was then used the immunize mice to generate mature B cells secreting antibodies specifically recognizing HDGF. After fusing the B cells with myeloma cells and several rounds of screening/selection steps, single clones secreting high-affinity IgGs capable to bind native HDGF were identified. […] Antibodies from these clones were selected and tested using IHC. Similar staining patterns were obtained in a panel of tumor samples among these antibodies and between these antibodies and the previously mentioned polyclonal antibodies, indicating these antibodies recognize HDGF. All of the four monoclonal antibodies are IgG1 and have been adapted to serum-free conditions for scale-up production.

[7] = system: A549 xenograft; assay: A549 xenograft model, individual monoclonal antibodies; type: in vivo, mouse; conditions: for average tumor weights: 500 μg boost then 250 μg every three days x4 i.p., day 22, PBS 784±458; for tumor growth inhibition vs PBS and M31 controls: A549 xenograft, individual antibodies
Text: To determine an anti-tumor effect of individual monoclonal antibodies, the CELLine™ system (BD Biosciences) was used to generate the amount of antibodies for each clone sufficient for our animal experiments. In our second experiment, we tested four individual monoclonal antibodies (H3, C1, C4, and L5-9) and used PBS and M31, an IgG1 antibody without known antigen, as controls. Cell inoculation was similar to the experiment described above, 7 days after subcutaneous injection of A549 cells, the animals with established tumors were randomized into one of the 6 groups. Besides PBS group, which was given 200 μl PBS every IP injection, all the other groups were given a 500 μg of individual antibody as boost dose followed by 250 μg/injection every three days for four times. Tumor sizes were measured every three days. All the animals were sacrificed at day 22 after tumor cell inoculation.

[8] = system: L3.6 pancreatic cancer cells; assay: L3.6 pancreatic cancer xenograft model; type: in vivo; conditions: mice with tumors bigger than 500 mg, one week after treatment
Procedure: Anti-HDGF antibodies were tested for a therapeutic effect in a xenograft model using metastatic L3.6 pancreatic cancer cells. After 10 days of tumor cell inoculation, mice were randomly selected into either M31 control antibody treatment, H3 antibody treatment, or C1 antibody treatment. The sizes of the tumors were between 100-200 mg at the time of treatment except three which grown bigger than 500 mg and were assigned to each group. […] This phenomenon is similar to human clinical observations where some established primary lung cancers develop liquidized central part of the tumors after treatment with agents having anti-angiogenic activity such as sorafenib (BAY 43-9006). This is a hallmark feature of anti-angiogenic agents as a class.

[9] = system: H460 xenograft; assay: H460 xenograft model; type: in vivo, mouse
[10] = system: "MiaPaca-2" line (M109); assay: Putative MiaPaca-2 (believed M109 murine lung adenocarcinoma) xenograft model; type: in vivo, mouse; conditions: putative MiaPaca-2 (murine M109) model, H3 compared with C1
Procedure: as §1, §2

[11] = biological target: T3, native HDGF (Mus musculus, UniProt P51859); assay: Immunoprecipitation of native HDGF from putative MiaPaca-2 cells; type: binding; conditions: putative MiaPaca-2 cells (murine HDGF)
T3 construct: endogenous in cells; host or cells: putative MiaPaca-2 cells, believed to be M109 murine lung adenocarcinoma
Procedure: as §2

[12] = biological target: T4, HDGF (Homo sapiens, UniProt P51858); assay: Immunoprecipitation of HDGF from H460 total cell lysates; type: binding; conditions: H460 NSCLC total cell lysates
T4 construct: The antibody sufficiently pulled down over 90% of the cellular HDGF; endogenous in cells; host or cells: H460 NSCLC cells (total cell lysate)
Procedure: In most studies, HDGF was found localized in nuclear compartment. […] One possibility of the lacking cytoplasmic staining is the common IHC conditions. Alternatively, the protein may be rapidly released from cells making the detection of protein in cytoplasm difficult. Taking advantage of the newly developed monoclonal antibodies, two sets of experiments were performed to determine the subcellular localization of HDGF and the secretion/releasing status of the protein. In one set of experiment, H3 was used for immunoprecipitation (IP) employing total cell lysates from H460 NSCLC cells. The antibody sufficiently pulled down over 90% of the cellular HDGF. Some potential HDGF binding proteins might have also co-precipitated with HDGF. We then extracted cytoplasmic proteins and nuclear proteins separately and performed IP as described above followed by 2-DE protein separation. Although the relative HDGF protein amount was higher in the nuclear than in the cytoplasm with equal amount of protein loading, HDGF was clearly presented in cytoplasm with distinct modification or homologues patterns between the two subcellular compartments. It should be noted that the total amount of cytoplasmic proteins is much higher than the nuclear proteins. Therefore, the absolute amount of HDGF in cytoplasm may actually be similar or even higher to that in nuclear.

T2 sequence (P51859 whole entry A118D): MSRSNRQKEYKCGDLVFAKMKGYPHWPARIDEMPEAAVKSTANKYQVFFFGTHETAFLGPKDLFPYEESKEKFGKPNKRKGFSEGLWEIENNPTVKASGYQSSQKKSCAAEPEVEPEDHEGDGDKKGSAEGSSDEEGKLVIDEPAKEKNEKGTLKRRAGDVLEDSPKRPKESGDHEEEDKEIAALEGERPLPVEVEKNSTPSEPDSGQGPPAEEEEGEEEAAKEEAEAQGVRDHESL
native HDGF (Homo sapiens, UniProt P51858), sequence (P51858 whole entry): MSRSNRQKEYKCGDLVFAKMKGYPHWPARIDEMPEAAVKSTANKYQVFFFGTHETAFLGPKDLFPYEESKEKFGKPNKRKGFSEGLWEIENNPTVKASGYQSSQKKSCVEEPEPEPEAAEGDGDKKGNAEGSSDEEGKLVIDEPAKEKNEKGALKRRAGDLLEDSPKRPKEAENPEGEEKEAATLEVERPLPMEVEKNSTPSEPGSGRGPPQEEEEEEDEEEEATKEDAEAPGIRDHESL
T4 sequence (P51858 whole entry): as above
T1 sequence (P51858 whole entry): as above
T3 sequence (P51859 whole entry): as the sequence (P51859 whole entry A118D) above, with D118A counted along it

Molecule	size of the microvessels in the tumors [1]	tumor growth inhibition [2]	numbers of microvessels in the tumors [1]	detection of HDGF on Western blots [4]	antibody localization in tumor tissue (anti-mouse IgG staining) [5]	binding to native HDGF [6]	average tumor weights [7]	tumor growth inhibition vs PBS and M31 controls [7]	liquidized central part of tumor (hollow effect) [8]	tumor growth inhibition [9]	further results
Nc1ccn([C@@H]2O[C@H](CO)[C@@H](O)C2(F)F)c(=O)n1 [gemcitabine, reference compound]	further increase the size	only modest tumor growth inhibition									
Avastin®: FDA approved VEGF neutralizing monoclonal antibody [reference compound]		best inhibition	substantially reduced numbers of microvessels								
B1											binding result [3]: binds
B2	stronger role in reducing the size	best inhibition followed by H3	substantially reduced numbers of microvessels	did not detect HDGF	entered into the cytoplasmic compartment of some tumor cells	ability to immunoprecipitate HDGF	266±22	most significant tumor growth inhibition	developed liquidized central part	effective in inhibiting tumor growth	antibody distribution in the animals including tumors ([5]; fluorescence-labeled antibody, 12 h after i.p. injection, nude mice): evenly distributed; tumor growth inhibition [10]: better tumor growth inhibition; binding to native HDGF of the tumor cells [11]: strongly bound; cellular HDGF pulled down by immunoprecipitation [12]: over 90%
B3				did not detect HDGF	entered into both cytoplasm and nuclear	ability to immunoprecipitate HDGF	224±85	most significant tumor growth inhibition	developed liquidized central part	effective in inhibiting tumor growth	
